The values that follow come from patent US20130302346A1 (LEXICON PHARMACEUTICALS, published 2013).

Read-outs that look alike come from different tables or passages of the source.

The target of assay [1] is T1, Human NOTUM (human, UniProt Q6P988 20-496).
T1 construct: also called human notum pectinacetylesterase; recombinant human NOTUM
T1 sequence: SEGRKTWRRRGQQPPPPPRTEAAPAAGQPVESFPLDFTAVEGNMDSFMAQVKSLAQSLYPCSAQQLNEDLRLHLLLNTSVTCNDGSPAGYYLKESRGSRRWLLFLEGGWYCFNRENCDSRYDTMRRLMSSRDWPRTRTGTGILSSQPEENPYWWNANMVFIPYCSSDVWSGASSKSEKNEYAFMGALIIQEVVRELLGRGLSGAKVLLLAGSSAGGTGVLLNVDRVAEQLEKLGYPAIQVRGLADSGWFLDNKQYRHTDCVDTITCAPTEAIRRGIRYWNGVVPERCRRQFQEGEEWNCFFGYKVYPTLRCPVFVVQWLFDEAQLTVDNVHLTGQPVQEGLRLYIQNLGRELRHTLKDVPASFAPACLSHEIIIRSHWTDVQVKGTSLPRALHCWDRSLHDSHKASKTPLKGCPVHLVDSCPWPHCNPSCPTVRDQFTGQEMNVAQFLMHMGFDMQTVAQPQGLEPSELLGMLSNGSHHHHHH
The assay is described as follows: Biacore 3000. As to the method: (§1) Binding affinities of certain anti-NOTUM MAbs was determined using a Biacore 3000. In order to obtain meaningful affinity values for binding to multimeric […] NOTUM protein, antibody FAb fragments were generated by digestion of whole IgG with the protease Ficin, followed by removal of undigested IgG and Fc fragments by protein A affinity chromatography. Affinity values for binding of FAbs and whole IgG to human NOTUM corresponded, and their affinity values were in the single to low double digit nM range, as shown in Table 3.

The target of assay [2] is T2, Mouse NOTUM (mouse, UniProt Q8R116 20-503).
T2 construct: also called recombinant mouse NOTUM
T2 sequence: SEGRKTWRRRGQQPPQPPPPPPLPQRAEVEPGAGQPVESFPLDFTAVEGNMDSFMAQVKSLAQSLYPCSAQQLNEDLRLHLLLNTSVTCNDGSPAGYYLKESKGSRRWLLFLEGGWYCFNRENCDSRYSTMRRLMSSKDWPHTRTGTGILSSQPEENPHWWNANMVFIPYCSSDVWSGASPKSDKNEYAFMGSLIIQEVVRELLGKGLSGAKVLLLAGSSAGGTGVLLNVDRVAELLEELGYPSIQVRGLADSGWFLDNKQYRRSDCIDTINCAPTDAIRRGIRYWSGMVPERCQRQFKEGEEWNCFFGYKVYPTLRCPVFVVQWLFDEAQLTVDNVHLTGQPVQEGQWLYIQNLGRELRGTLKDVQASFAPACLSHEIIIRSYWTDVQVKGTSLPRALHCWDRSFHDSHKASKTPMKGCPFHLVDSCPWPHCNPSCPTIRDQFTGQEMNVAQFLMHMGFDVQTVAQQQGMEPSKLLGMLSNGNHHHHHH
Nature of the assay: Biacore 3000. Here is the method: as §1

The target of assay [3] is T2, Mouse NOTUM. The assay is described as follows: cell-based or functional assay.
Assay [4] concerns the target T1, Human NOTUM. Nature of the assay: ELISA (column 'Human NOTUM binding').
Assay [5] has as its target T1, Human NOTUM. The assay is described as follows: cell-based or functional assay.
Another assay addresses T3, Rhesus monkey NOTUM (rhesus monkey, UniProt Q6P988 20-491 (human entry)).
T3 construct: Produced by transient transfection; also called Rhesus macaque NOTUM; rhesus NOTUM
T3 chain: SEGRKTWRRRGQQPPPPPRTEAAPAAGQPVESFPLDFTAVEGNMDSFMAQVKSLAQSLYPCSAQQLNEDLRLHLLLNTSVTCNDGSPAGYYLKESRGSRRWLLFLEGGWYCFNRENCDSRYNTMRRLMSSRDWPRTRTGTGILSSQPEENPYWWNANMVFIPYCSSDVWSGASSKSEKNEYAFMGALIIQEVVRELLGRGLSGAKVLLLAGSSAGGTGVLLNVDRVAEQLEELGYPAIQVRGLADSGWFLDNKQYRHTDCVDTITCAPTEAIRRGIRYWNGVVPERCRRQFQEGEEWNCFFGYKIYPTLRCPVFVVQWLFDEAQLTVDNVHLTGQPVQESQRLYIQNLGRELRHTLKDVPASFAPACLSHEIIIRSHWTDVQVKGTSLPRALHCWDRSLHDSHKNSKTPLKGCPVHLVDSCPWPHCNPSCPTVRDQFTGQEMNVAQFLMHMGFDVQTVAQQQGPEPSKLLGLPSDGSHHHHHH
Nature of the assay: ELISA.

Another assay concerns the target T4, Human NOTUM R144A/R145A (human, UniProt Q6P988 20-496).
T4 construct: Alanine mutant, expressed and secreted after transient transfection
T4 sequence: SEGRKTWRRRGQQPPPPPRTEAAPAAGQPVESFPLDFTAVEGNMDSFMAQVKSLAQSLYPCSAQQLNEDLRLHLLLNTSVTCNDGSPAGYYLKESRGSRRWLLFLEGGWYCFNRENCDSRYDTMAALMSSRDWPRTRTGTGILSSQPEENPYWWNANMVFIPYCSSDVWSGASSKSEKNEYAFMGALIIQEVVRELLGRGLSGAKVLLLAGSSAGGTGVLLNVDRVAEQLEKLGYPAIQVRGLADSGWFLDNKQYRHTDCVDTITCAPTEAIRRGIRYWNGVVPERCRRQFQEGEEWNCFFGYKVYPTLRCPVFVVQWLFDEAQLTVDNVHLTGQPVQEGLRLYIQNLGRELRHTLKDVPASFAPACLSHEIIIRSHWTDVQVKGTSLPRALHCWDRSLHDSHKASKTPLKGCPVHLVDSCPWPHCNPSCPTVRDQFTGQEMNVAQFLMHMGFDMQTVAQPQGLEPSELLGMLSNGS
Nature of the assay: ELISA.

The target in the next assay is T5, Human NOTUM D137A/R139A (human, UniProt Q6P988 20-496).
T5 construct: Alanine mutant, expressed and secreted after transient transfection; little to no activity in the OPTS assay
T5 sequence: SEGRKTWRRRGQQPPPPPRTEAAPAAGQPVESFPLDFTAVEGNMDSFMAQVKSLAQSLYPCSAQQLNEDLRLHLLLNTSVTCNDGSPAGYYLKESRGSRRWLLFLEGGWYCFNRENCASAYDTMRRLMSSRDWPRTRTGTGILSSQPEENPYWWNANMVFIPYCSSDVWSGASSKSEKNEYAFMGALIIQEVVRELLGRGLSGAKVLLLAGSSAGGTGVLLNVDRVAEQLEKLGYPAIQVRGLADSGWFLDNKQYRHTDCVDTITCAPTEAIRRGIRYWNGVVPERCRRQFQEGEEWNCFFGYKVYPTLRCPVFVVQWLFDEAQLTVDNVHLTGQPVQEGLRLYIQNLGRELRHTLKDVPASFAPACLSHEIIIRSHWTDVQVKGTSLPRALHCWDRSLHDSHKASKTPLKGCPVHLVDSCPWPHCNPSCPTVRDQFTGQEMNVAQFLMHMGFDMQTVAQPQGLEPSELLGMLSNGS
Nature of the assay: ELISA.

The target of the next assay is T6, Guinea pig NOTUM (guinea pig, UniProt Q6P988 21-496 (human entry)).
T6 construct: Expressed by transient transfection
T6 chain: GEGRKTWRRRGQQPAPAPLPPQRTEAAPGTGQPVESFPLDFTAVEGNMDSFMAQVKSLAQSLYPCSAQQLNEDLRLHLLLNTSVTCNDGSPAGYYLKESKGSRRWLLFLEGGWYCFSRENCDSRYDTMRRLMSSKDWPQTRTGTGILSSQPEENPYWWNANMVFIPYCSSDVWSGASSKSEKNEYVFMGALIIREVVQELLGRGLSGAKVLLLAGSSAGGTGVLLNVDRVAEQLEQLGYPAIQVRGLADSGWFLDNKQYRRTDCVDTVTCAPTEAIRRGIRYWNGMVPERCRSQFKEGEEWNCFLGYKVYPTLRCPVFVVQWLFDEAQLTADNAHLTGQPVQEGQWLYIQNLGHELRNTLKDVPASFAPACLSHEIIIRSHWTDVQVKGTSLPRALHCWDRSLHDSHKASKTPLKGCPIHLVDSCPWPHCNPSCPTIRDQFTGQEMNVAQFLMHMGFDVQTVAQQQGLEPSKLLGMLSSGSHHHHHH
Nature of the assay: ELISA.

In assay [6] the target is T1, Human NOTUM. Nature of the assay: cell-based or functional assay. This is another data set of the same source.
The target in assay [7] is T1, Human NOTUM. The assay is described as follows: cell-based or functional assay. The source holds these as a separate data set.
Assay [8] concerns the target T2, Mouse NOTUM. Nature of the assay: cell-based or functional assay. The source holds these as a separate data set.

B1: 1.802 Fab (Fab, V domains shown)
VH: EVQLVESGGGLVKPGGSLKLSCAASGFTFSDYGMHWFRQAPEKGLEWVAYISSGSRTVYYADTVKGRFTISRDNAKNTLSLQMTSLRSEDTAMYYCARKHYNGGYFDVWGTGTTVTVSS
VL: DIVLTQSPASLAVSLGQRATISCRASKIVSTSGYSYMHWYQQKPGQPPKLLIYLASNLESGVPARFSGSGSGTDFTLNIHPVEEEDAATYYCQHSRELPPTFGSGTKLEIKR
notes: Fab made by digestion of whole IgG (mouse IgG1) with ficin
In the assay with Human NOTUM [1], B1 yielded a Kd of 0.91 nM and a kon of 899000 M⁻¹ s⁻¹. Besides, the binding result with Mouse NOTUM [2] is “no binding”.

B2: MAb 2.55 (antibody, IgG2a, V domains shown)
VH: EVQLQQSGTVLARPGALVKMSCKASGYTFTSYWMHWVKQRPGQGLEWIGAIYPGKSDTRYNQKFKDKAKLTAVTSTSTAYMDLSSLTDEDSAVYYCSRRYGNFYAMDYWGQGTSVTVSS
VL: SIVMTQTPKFLLVSAGDRVTMTCKASQSVSNDVAWYQQKPGQSPELLIYYASDRYTGVPDRFTGSGYGTDFTLTISTVQAEDLAVYFCQQDYSSPYTFGGGTKLETKR
notes: Mouse monoclonal antibody from Campaign 2, IgG2a
With B2, the “OPTS IC50 (nM; mouse NOTUM)” value in the assay with Mouse NOTUM [3] amounted to 26.1 nM. For the same molecule, the binding result with Human NOTUM [4] is reported as “binds”.

B3: MAb 2.78 (antibody, V domains shown)
VH: DVQLVESGGGLVQPGGSRKLSCAASGFTFSSFGMHWVRQAPEKGLEWVAYITSGSGAIYYADTVRGRFTISRDTPKNTLFLQMTSLRSEDTAMYYCARSADGLDYWGQGTSVTVSS
VL: DIQMTQSPASLYVSVGETVTITCRASENIYSNLAWYQQKQGKSPQLLVYGATNLADGVPSRFSGSGSGTQYSLKINSLKSEDFGSYYCQHFWGTPFTFGSGTKLEIKR
notes: Mouse monoclonal antibody from Campaign 2 (raised against mouse NOTUM), IgG2b
Consider B3, for which the “OPTS IC50 (nM; human NOTUM)” value with Human NOTUM [5] is 15.5 nM. Besides, the “Wnt signaling IC50 (nM; human NOTUM)” value with Human NOTUM [5] was found to be 45.9 nM. The “OPTS IC50 (nM; mouse NOTUM)” value with Mouse NOTUM [3] came out at 35.6 nM. In addition, the “Wnt signaling IC50 (nM; mouse NOTUM)” value with Mouse NOTUM [3] was 3.75 nM. The binding result is “binds” in the assay with Rhesus monkey NOTUM, “no binding” with Human NOTUM R144A/R145A, “no binding” with Human NOTUM D137A/R139A and “binds” in the assay with Guinea pig NOTUM. For the same molecule, the Kd with Human NOTUM [1] came to 17.6 nM. For the same molecule, the on-rate (kon) in the assay with Human NOTUM [1] stood at 47900 M⁻¹ s⁻¹.

B4: 2.78 Fab (Fab, V domains shown)
VH: DVQLVESGGGLVQPGGSRKLSCAASGFTFSSFGMHWVRQAPEKGLEWVAYITSGSGAIYYADTVRGRFTISRDTPKNTLFLQMTSLRSEDTAMYYCARSADGLDYWGQGTSVTVSS
VL: DIQMTQSPASLYVSVGETVTITCRASENIYSNLAWYQQKQGKSPQLLVYGATNLADGVPSRFSGSGSGTQYSLKINSLKSEDFGSYYCQHFWGTPFTFGSGTKLEIKR
notes: Fab made by digestion of whole IgG (mouse IgG2b) with ficin
In the assay with Human NOTUM [1], B4 gave a Kd of 15.4 nM, a koff of 0.00136 s⁻¹ and an on-rate constant (kon) of 87700 M⁻¹ s⁻¹. In the assay with Mouse NOTUM [2], this molecule came in with a Kd of 4.99 nM and an on-rate constant (kon) of 39100 M⁻¹ s⁻¹.

B5: MAb 2.1029 (antibody, IgG2a, V domains shown)
VH: QVQLKESGPGLVAPSQSLSITCTVSGFSLTSYGVHWVRQPPGKGLEWLGVIWAGGSTNYNSALMSRLSISKDNSKSQVFLKMNSLQTDDTAIYFCARDGDYGTIYAMDYWGQGTSVTVSS
VL: DIQMTQTTSSLSASLGDRVTISCRASQDISNYLNWYQQKPDGTVKLLIYYTSRLHSGVPSRFTGSGSGTDYSLTISNLEQEDIATYFCQQGKTLPRTFGGGTMLEIKR
notes: as for B2
For the molecule B5, in the assay with Human NOTUM [5], the “OPTS IC50 (nM; human NOTUM)” value stood at 5.77 nM and the “Wnt signaling IC50 (nM; human NOTUM)” value stood at 14 nM. Besides, the “OPTS IC50 (nM; mouse NOTUM)” value with Mouse NOTUM [3] turned out to be 29.2 nM. Further, the “IC50, neutralization in the Wnt signaling assay” value with Human NOTUM [6] worked out at 14 nM. Besides, the binding result with Rhesus monkey NOTUM is given as “binds”. Also, the binding result with Guinea pig NOTUM is listed as “binds”. In the assay with Human NOTUM [1], the affinity, expressed as Kd, was 5.99 nM and the kon was 151000 M⁻¹ s⁻¹.

B6: MAb 1.731 (antibody, IgG1, V domains shown)
VH: EVQLQQSGPELVKPGASVKVSCKASGYPFTDYFIHWVKQTHGKSLEWIGYFFPKNGANGYNQKFEGKVTLTVDKSSSTAYMELRSLTSEDSAVYYCARRYGNYYSMDYWGQGTSVTVSS
VL: SFVMTQTPKFLLVSAGDRVTITCKASQSVGDDVAWYQQKPGQSPTLLIYRVSNRYTGVPDRFTGSGYGTDFTFTINTVQAEDLAVYFCQQDYSSPYTFGGGTQLEVKR
Consider B6, for which, in the assay with Human NOTUM [7], the “OPTS IC50 (nM; human NOTUM)” value was more than 167 nM and the “Wnt signaling IC50 (nM; human NOTUM)” value was determined as 15.5 nM. In the assay with Mouse NOTUM [8], the “OPTS IC50 (nM; mouse NOTUM)” value is 197 nM.
